Source: patent US20240158497A1 (published 2024)

B1: MAb16659 (antibody, V domains shown)
VH: QVQLVQSGPEVKKPGSSVKVSCKASGGTIDRNEITWVRQAPGQGLEWMGVIIPILGEAHYERKFQGRLTITMDESTSTAYMELSNLRSEDTAVYYCARERAARGYLDYWGQGTLVTVSS
VL: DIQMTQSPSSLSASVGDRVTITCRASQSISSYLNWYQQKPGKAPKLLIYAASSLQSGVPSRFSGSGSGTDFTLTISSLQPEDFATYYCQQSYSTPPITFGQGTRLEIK
B2: MAb16662 (antibody, V domains shown)
VH: EVQLVESGGGLVQPGGSLRLSCTASGFTFSNYAIFWVRQAPGKGLEYVSGISNNGVTKYYADSVRDRFTISRDNSRNTVSIQMDSLRTEDMAVYYCARENWGSDDGFDIWGQGTMVTVSS
VL: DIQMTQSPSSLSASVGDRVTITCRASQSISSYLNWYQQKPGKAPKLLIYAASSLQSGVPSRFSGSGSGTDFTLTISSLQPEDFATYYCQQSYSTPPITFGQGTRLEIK
B3: MAb16656 (antibody, V domains shown)
VH: EVQLVESGGGLVQPGRSLRLSCAASGFTLDDFAMHWVRQAPGKGLEWVSGISWNSGNIGYADSVKGRFTISRDNARNSLYLQMNSLRAEDTALYYCTSGYYLYYAMDVWGQGTTVTVSS
VL: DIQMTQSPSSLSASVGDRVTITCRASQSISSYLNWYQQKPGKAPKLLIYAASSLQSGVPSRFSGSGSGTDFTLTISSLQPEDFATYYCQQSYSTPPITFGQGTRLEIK
B4: MAb16622 (antibody, V domains shown)
VH: EVQLVESGGGVVRPGGSLRLSCTASGFTFDDYGMSWVRQAPGKGLEWVSGINWNGGRTEYADAVKGRFIISRDNAKNSLYLQMNSLRAEDTALYFCARTELRWDYWGQGTLVTVSS
VL: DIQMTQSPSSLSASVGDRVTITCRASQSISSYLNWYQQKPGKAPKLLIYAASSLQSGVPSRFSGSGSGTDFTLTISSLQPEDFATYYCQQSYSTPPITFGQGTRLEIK
B5: MAb16614 (antibody, V domains shown)
VH: QVQLVESGGGVVQPGGSLRLSCAASGFTFSTYDIHWVRQAPGKGLEWVAVISFDGSNRNYGDSVKGRFTISRDNSDNTLFLEMNNLRFEDTAVYYCAKEGYGVDFQHWGQGTLVTVSS
VL: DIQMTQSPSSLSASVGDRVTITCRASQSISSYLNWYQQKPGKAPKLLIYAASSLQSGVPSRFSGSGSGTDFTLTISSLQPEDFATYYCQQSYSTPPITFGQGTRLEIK
B6: MAb16673 (antibody, V domains shown)
VH: EVQLVQSGAEVKKPGESLKISCKGSGYSFTSYWIDWVRQMPGKGLEWMGIIYPDDSDTRYSPSFQGQVTMSVDKSISTAYLQWSSLKASDTAIYYCARHERGIVEAGTDYYYYYGMDVWGQGTTVTVSS
VL: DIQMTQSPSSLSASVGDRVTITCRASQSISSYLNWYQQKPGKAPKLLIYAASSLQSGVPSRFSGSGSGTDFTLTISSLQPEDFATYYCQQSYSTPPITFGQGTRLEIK
B7: MAb16669 (antibody, V domains shown)
VH: EVQLVESGGGLVQPGGSLRLSCAASGFTFSSYAMNWVRQAPGKGLEWVSAISGSGDSTYYTDSVKGRFTISRDNSKNTLYLQMNTLRAEDTAVYYCAKEEIVMLVGATPGWFDPWGQGTLVTVSS
VL: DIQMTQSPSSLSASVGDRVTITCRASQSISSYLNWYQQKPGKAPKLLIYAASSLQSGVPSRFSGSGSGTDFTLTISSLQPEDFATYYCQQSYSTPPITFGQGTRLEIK
B8: MAb16682 (antibody, V domains shown)
VH: EVQLVESGGGLVQPGGSLRLSCAASGFTFSTYWMNWVRQAPGKGLEWVANIKEDGSEKYYVDSVKGRFTISRDNAKNSLYLQMNSLRAEDTAVYYCAREGFGVVTYIWGQGTMVTVSS
VL: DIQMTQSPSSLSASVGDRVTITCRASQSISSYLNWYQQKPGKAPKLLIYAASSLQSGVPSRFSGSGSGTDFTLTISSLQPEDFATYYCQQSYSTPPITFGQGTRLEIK
B9: MAb16664 (antibody, V domains shown)
VH: QVQLVQSGTEVKKPGSSVKVSCKASGGTFSTYPINWVRQAPGQGLEWMGGIIPIFGTASYAQKFQGRVAITTDESTSTAYMELNSLRSEDTAVYYCARERPNWGSNDYWGQGTLVTVSS
VL: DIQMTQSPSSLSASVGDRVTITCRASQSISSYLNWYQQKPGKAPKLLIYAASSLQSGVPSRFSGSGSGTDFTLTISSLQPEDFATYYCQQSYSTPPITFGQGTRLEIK
B10: MAb16623 (antibody, V domains shown)
VH: EVQLVESGGGLVQPGGSLRLSCAASGLTFSSYEMNWVRQAPGKGLEWVSHISSAGSTKYYADSVKGRFTISRDNAKNSLFLQMNSLRAEDTAIYYCAGYNYAYYYFGVDVWGQGTTVTVSS
VL: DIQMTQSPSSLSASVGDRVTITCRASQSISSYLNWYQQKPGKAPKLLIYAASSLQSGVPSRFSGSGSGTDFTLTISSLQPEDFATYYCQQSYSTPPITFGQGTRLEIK
B11: MAb16618 (antibody, V domains shown)
VH: QVQLQESGPGLVKPSETLSLTCTVSGGSISNYYWTWIRQPPGKGLEWIGHISNSGTTNYNPSLKSRVTISVDTSKNQFSLKLTSVTAADTAVYYCARLPLGIAAVDTDYYYYFGMDVWGQGTTVTVSS
VL: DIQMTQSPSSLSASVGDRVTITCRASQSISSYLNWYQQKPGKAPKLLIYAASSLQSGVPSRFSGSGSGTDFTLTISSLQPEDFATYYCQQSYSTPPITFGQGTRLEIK
B12: MAb16636 (antibody, V domains shown)
VH: QLQLQESGPGLVKPSETLSLICTVSGGSISSNNYYWGWIRQPPGKGLEWIGNLYGSGSTYYNPSLKSRVTISVDTSKNQFSLKLSFVTAADTAVYHCARWDTNGGAFDIWGQGTMVTVSS
VL: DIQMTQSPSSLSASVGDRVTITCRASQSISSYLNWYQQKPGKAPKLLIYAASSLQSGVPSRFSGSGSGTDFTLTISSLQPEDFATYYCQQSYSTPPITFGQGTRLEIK
B13: MAb16665 (antibody, V domains shown)
VH: QVQLVESGGGVVQPGRSLRLACAASGFTFRSYGMHWVRQAPGKGLEWVAVIWYDGSNKYYTDSVKGRFTISRDNSKNTLYLQMNSLRAEDTAMYYCAIDKWATVTTYLFDYWGQGTLVTVSS
VL: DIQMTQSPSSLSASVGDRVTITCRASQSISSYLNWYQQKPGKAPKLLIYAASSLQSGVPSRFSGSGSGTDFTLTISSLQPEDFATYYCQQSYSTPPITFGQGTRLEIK
B14: MAb16666 (antibody, V domains shown)
VH: EVQLVESGGGLVQSGGSLRLSCAASGFTFSRYEMNWVRQAPGKGLEWVAYISNTGTTRDYSDSVKGRFTISRDNAKNSLYLQMSSLRVEDTAVYYCVREKFSGTSDWFDPWGQGTLVTVSS
VL: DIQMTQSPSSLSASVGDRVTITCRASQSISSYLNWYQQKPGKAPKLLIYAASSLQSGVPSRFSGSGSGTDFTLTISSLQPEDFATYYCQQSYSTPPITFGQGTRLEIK
B15: MAb16637 (antibody, V domains shown)
VH: QVQLVQSGAEVKKPGASVKVSCKASGYTFTSLGISWVRQAPGQGLEWMGWISAYSGNRDYAQKFQGRVTMTTDTSTSTAYMELRSLRSDDTAVYYCARSLRFDYWGQGTLVTVSS
VL: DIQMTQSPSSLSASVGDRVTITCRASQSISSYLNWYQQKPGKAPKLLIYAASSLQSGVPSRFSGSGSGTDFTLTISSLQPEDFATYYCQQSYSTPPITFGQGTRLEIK

Experiments:
[1] = target: T1, mouse GP130 extracellular domain expressed with a C-terminal myc-myc-hexahistidine tag (mouse, UniProt Q00560 23-617); experiment: SPR
T1 construct: monomeric; also called mGP130-mmH; mGP130-MMH
Description: (§1) Equilibrium dissociation constant (KD) for different GP130 reagents binding to purified anti-GP130 monoclonal antibodies were determined using a real-time surface plasmon resonance based Biacore 4000 biosensor. All binding studies were performed in 10 mM HEPES, 150 mM NaCl, 3 mM EDTA, and 0.05% v/v Surfactant Tween-20, pH 7.4 (HBS-ET) running buffer at 25° C. and 37° C. The Biacore sensor surface was first derivatized by amine coupling with a monoclonal mouse anti-human Fc antibody (GE, #BR-1008-39) to capture anti-GP130 monoclonal antibodies. […] Reagents tagged with “mmH” are monomeric, whereas reagents tagged with “mFc” are dimeric. Thus, for example, “hGP130-mmH” is also referred to as “monomeric human GP130,” and “hGP130-mFc” is also referred to as “dimeric human GP130.”
(§2) The association rate (k a) and dissociation rate (kd) were determined by fitting the real-time binding sensorgrams to a 1:1 binding model with mass transport limitation using Scrubber 2.0c curve-fitting software. Binding dissociation equilibrium constant (KD) and dissociative half-life (t ½) were calculated from the kinetic rates as: […]

[2] = target: T2, human GP130 delta D1 expressed with a C-terminal myc-myc hexahistidine tag (human, UniProt P40189 124-619); experiment: Luminex, myc-captured antigen
T2 construct: CHO supernatant, captured on anti-myc microspheres; also called human GP130 delta D1-MMH
Description: (§3) Aliquots of microspheres with immobilized anti-myc monoclonal antibodies, prepared as described above, were added individually to 1 mL of the each of these protein supernatants and to 500 uL of purified GP130 protein. The microspheres were gently mixed, incubated for two hours at 25° C., washed twice with 1 mL of DBPS, centrifuged to remove the supernatant and finally resuspended in 1 mL of DPBS buffer. Forty eight μL of anti-myc IgG coupled microspheres from individual reactions with full length human GP130 and with each of the human GP130 domain proteins were withdrawn and mixed together in 3.6 mL of PBS+20 mg/mL BSA+0.05% sodium azide (blocking buffer).
(§4) From this mixed pool, 75 μL of microspheres were plated per well on a 96 well filter plate (Millipore, Cat. No: MSBVN1250) and mixed with 25 μL of individual anti-human GP130 monoclonal antibodies (0.5 or 5 μg/mL), incubated for two hours at 25° C. and then washed twice with 200 μL of DPBS with 0.05% Tween 20 (washing buffer). To detect and quantify the amounts of bound anti-GP130 antibody levels to individual microspheres, either 100 μL of 2.5 μg/mL R-Phycoerythrin conjugated goat F(ab′)2 anti-human kappa (Southern Biotech, Cat #2063-09) in blocking buffer, was added and incubated for 30 minutes at 25° C. After 30 minutes, the samples were washed twice with 200 μL of washing buffer and resuspended in 150 μL of wash buffer. The Median Fluorescence intensity (MFI) of the microspheres was measured in a Luminex Analyzer.

[3] = target: T3, human GP130 delta D1-D3 expressed with a C-terminal myc-myc hexahistidine tag (human, UniProt P40189 329-619); experiment: Luminex, myc-captured antigen
T3 construct: CHO supernatant, captured on anti-myc microspheres; also called human GP130 delta D1-D3-MMH
Description: as §3, §4

[4] = target: T4, human GP130 extracellular domain expressed with a C-terminal myc-myc-hexahistidine tag (human, UniProt P40189 23-619); experiment: SPR 25C, mAb captured, hGP130-MMH injected
T4 construct: monomeric; also called hGP130-mmH; hGP130-MMH
Description: as §1, §2

T1 sequence (Q00560 other isoform, or with tags, fused parts or gaps): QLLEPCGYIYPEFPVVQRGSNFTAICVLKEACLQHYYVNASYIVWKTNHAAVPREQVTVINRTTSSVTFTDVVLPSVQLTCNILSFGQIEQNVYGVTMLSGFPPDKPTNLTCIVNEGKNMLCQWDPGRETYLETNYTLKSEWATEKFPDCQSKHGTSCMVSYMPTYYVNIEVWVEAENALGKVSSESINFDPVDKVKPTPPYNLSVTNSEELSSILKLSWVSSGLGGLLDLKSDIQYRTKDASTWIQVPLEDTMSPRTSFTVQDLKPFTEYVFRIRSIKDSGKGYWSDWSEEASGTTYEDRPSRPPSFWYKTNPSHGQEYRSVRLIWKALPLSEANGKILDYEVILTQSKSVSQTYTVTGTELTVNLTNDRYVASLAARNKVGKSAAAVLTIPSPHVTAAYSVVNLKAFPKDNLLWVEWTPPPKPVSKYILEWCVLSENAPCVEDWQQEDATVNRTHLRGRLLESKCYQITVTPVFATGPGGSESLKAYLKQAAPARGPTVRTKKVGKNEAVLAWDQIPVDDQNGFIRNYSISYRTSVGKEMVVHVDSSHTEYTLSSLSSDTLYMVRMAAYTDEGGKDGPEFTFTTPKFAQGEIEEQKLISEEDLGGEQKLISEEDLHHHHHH
T2 sequence (P40189 other isoform, or with tags, fused parts or gaps mutant limits assumed): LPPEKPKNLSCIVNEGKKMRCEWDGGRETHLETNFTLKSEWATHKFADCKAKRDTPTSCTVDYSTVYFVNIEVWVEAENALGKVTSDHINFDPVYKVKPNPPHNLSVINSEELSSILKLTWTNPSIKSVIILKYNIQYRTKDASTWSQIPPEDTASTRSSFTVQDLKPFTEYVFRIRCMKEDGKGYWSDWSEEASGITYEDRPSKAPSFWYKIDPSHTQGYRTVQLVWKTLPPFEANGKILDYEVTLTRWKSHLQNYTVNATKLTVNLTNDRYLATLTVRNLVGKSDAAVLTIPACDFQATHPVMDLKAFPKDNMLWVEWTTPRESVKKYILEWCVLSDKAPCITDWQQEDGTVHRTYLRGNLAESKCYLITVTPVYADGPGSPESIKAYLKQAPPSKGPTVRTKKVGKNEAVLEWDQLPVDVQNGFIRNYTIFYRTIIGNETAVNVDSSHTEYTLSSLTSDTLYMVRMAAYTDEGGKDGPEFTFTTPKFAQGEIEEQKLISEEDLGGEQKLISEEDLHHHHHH
T3 sequence (P40189 other isoform, or with tags, fused parts or gaps mutant limits assumed): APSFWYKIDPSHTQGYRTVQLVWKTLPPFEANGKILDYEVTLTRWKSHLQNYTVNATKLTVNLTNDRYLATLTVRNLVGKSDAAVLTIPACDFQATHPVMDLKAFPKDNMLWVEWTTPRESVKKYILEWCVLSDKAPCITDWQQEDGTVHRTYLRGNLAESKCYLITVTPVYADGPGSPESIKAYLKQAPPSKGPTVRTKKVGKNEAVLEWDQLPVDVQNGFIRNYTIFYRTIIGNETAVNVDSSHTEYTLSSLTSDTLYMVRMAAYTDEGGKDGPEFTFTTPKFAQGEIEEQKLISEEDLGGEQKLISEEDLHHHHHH

Row | Binder | binding result [1] | binding result [2] | binding result [3] | 100 nM Ag Bound (RU) [4] [RU] | Kd [4] [nM] | koff [4] [s⁻¹] | kon [4] [M⁻¹ s⁻¹] | t½ [4] [min]
1 | B1 | no binding (tested: 100 nM) | no binding (tested: 0.5 or 5 µg/mL) | no binding (tested: 0.5 or 5 µg/mL) | 77 | 0.663 | 0.000459 | 693000 | 25
2 | B2 | no binding (tested: 100 nM) | – | no binding (tested: 0.5 or 5 µg/mL) | 22 | 123 | 0.029 | 235000 | 0.4
3 | B3 | no binding (tested: 100 nM) | no binding (tested: 0.5 or 5 µg/mL) | no binding (tested: 0.5 or 5 µg/mL) | 44 | 23 | 0.000825 | 35900 | 14
4 | B4 | no binding (tested: 100 nM) | – | no binding (tested: 0.5 or 5 µg/mL) | 36 | 203 | 0.0243 | 120000 | 0.5
5 | B5 | no binding (tested: 100 nM) | – | no binding (tested: 0.5 or 5 µg/mL) | 18 | 183 | 0.0101 | 55200 | 1.1
6 | B6 | no binding (tested: 100 nM) | – | no binding (tested: 0.5 or 5 µg/mL) | 58 | 65.5 | 0.0141 | 215000 | 0.8
7 | B7 | no binding (tested: 100 nM) | – | – | 17 | 35.4 | 0.000403 | 11400 | 29
8 | B8 | no binding (tested: 100 nM) | – | no binding (tested: 0.5 or 5 µg/mL) | 21 | 136 | 0.0164 | 121000 | 0.7
9 | B9 | no binding (tested: 100 nM) | no binding (tested: 0.5 or 5 µg/mL) | no binding (tested: 0.5 or 5 µg/mL) | 14 | 2.35 | 0.00164 | 698000 | 7
10 | B10 | no binding (tested: 100 nM) | – | – | 77 | 21 | 0.00377 | 180000 | 3
11 | B11 | no binding (tested: 100 nM) | – | no binding (tested: 0.5 or 5 µg/mL) | 52 | 120 | 0.0425 | 354000 | 0.3
12 | B12 | no binding (tested: 100 nM) | – | no binding (tested: 0.5 or 5 µg/mL) | 37 | 36.8 | 0.000993 | 27000 | 12
13 | B13 | no binding (tested: 100 nM) | no binding (tested: 0.5 or 5 µg/mL) | no binding (tested: 0.5 or 5 µg/mL) | 20 | 411 | 0.0473 | 115000 | 0.2
14 | B14 | no binding (tested: 100 nM) | – | no binding (tested: 0.5 or 5 µg/mL) | 138 | 14.4 | 0.00456 | 317000 | 3
15 | B15 | no binding (tested: 100 nM) | no binding (tested: 0.5 or 5 µg/mL) | no binding (tested: 0.5 or 5 µg/mL) | 91 | 15.5 | 0.0011 | 71100 | 10
